In general, Kd refers to the constant that tells how readily two partners part at equilibrium. A low value points to tighter binding. By koff is commonly meant a measure of how fast the partners let go of each other. Lower therefore signals slow dissociation. Broadly, the kon is the rate constant with which the complex forms. Higher therefore signals fast association.

This experiment concerns the target mouse (murine) NGF (mouse) (UniProt P01139). Briefly: SPR, purified antibody, beta muNGF, 39 C.

Chain of mouse (murine) NGF (mouse) (P01139 122-241 limits assumed): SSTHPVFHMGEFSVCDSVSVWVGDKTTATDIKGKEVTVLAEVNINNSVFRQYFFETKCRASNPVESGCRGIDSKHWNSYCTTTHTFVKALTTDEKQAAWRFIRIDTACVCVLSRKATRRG

Regarding “chimeric αD11 (rat αD11 variable regions fused to canine constant chain regions) (antibody)”, the Kd stood at 0.905 pM, the koff is 6.2e-06 s⁻¹ and the kon is 6.86e+06 M⁻¹ s⁻¹.

For the origin of these results see US20230110287A1.
